B1: Segment polarity protein dishevelled homolog DVL-2 (Mus musculus), Q60838 (parent)
chain: MAGSSAGGGGVGETKVIYHLDEEETPYLVKIPVPAERITLGDFKSVLQRPAGAKYFFKSMDQDFGVVKEEISDDNARLPCFNGRVVSWLVSSDTPQPEVAPPAHESRTELVPPPPPLPPLPPERTSGIGDSRPPSFHPNVSSSHENLEPETETESVVSLRRDRPRRRDSSEHGAGGHRPGGPSRLERHLAGYESSSTLMTSELESTSLGDSDEDDTMSRFSSSTEQSSASRLLKRHRRRRKQRPPRMERTSSFSSVTDSTMSLNIITVTLNMEKYNFLGISIVGQSNERGDGGIYIGSIMKGGAVAADGRIEPGDMLLQVNDMNFENMSNDDAVRVLRDIVHKPGPIVLTVAKCWDPSPQAYFTLPRNEPIQPIDPAAWVSHSAALTGAFPAYPGSSSMSTITSGSSLPDGCEGRGLSVHMDMASVTKAMAAPESGLEVRDRMWLKITIPNAFLGSDVVDWLYHHVEGFPERREARKYASGLLKAGLIRHTVNKITFSEQCYYVFGDLSGGCESYLVNLSLNDNDGSSGASDQDTLAPLPGATPWPLLPTFSYQYPAPHPYSPQPPPYHELSSYTYGGGSASSQHSEGSRSSGSTRSDGGAGRTGRPEERAPESKSGSGSESELSSRGGSLRRGGEPGGTGDGGPPPSRGSTGAPPNLRALPGLHPYGAPSGMALPYNPMMVVMMPPPPPPVSTAVQPPGAPPVRDLGSVPPELTASRQSFHMAMGNPSEFFVDVM
B2: AP-2 complex subunit mu (Rattus norvegicus (Rat)), P84092 (parent)
chain: MIGGLFIYNHKGEVLISRVYRDDIGRNAVDAFRVNVIHARQQVRSPVTNIARTSFFHVKRSNIWLAAVTKQNVNAAMVFEFLYKMCDVMAAYFGKISEENIKNNFVLIYELLDEILDFGYPQNSETGALKTFITQQGIKSQHQTKEEQSQITSQVTGQIGWRREGIKYRRNELFLDVLESVNLLMSPQGQVLSAHVSGRVVMKSYLSGMPECKFGMNDKIVIEKQGKGTADETSKSGKQSIAIDDCTFHQCVRLSKFDSERSISFIPPDGEFELMRYRTTKDIILPFRVIPLVREVGRTKLEVKVVIKSNFKPSLLAQKIEVRIPTPLNTSGVQVICMKGKAKYKASENAIVWKIKRMAGMKESQISAEIELLPTNDKKKWARPPISMNFEVPFAPSGLKVRYLKVFEPKLNYSDHDVIKWVRYIGRSGIYETRC
partner: B1 chain

Variants of: B1
Conditions: with ap2m1_rat Ap2m1, P84092

| effect of a mutation on the interaction | Variant |
| --- | --- |
| decreasing interaction | R489A |
| decreasing interaction | D441K;N451A;R489A |
| decreasing interaction | D441K;N451A |
| decreasing interaction strength | K446M |
| decreasing interaction strength | K446A |
| disrupting interaction | Y561A |
| decreasing interaction | N451A |
| decreasing interaction | D441K |
| decreasing interaction | D441K;R489A |

Variants of: B1
Conditions: with ap2b1_bovin AP2B1, P63009
ap2b1_bovin AP2B1, P63009, sequence (P63009 whole entry): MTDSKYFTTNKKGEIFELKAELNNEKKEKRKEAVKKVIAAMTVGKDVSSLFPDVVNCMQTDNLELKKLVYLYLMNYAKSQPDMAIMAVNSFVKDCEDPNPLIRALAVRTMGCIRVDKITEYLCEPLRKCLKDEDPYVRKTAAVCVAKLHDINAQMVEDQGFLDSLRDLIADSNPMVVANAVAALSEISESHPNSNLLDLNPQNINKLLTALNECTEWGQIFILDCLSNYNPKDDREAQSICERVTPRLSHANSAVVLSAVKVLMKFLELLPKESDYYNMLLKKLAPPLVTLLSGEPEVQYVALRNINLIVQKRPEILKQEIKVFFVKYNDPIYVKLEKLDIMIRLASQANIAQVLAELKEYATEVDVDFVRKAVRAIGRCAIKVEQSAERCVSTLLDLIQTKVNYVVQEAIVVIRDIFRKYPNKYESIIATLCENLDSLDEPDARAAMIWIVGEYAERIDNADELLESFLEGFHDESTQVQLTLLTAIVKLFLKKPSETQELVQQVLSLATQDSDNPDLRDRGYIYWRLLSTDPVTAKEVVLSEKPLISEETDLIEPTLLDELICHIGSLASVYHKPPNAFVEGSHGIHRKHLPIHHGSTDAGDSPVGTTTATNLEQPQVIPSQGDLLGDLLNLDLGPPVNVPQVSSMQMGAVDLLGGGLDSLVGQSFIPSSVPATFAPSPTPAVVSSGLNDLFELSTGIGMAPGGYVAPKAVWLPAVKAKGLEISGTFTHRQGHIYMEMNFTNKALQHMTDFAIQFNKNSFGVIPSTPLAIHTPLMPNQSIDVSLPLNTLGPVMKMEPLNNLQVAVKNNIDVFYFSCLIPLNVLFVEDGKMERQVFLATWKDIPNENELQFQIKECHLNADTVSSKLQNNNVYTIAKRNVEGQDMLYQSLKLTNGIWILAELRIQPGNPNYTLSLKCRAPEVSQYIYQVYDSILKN

| effect of a mutation on the interaction | Variant |
| --- | --- |
| disrupting interaction | Y561A |

Variants of: B2
Conditions: with dvl2_mouse Dvl2, Q60838

| effect of a mutation on the interaction | Variant |
| --- | --- |
| disrupting interaction | MIGGLFIYNHKGEVLISRVYRDDIGRNAVDAFRVNVIHARQQVRSPVTNIARTSFFHVKRSNIWLAAVTKQNVNAAMVFEFLYKMCDVMAAYFGKISEENIKNNFVLIYELLDEILDFGYPQNSETGALKTFITQQGIKSQHQTKEEQSQITSQVTGQIGWRREGIKYRRNELFLDVLESVNLLMSPQGQVLSAHVSGRVVMKSYLSGMPECKFGMNDKIVIEKQGKGTADETSKSGKQSIAIDDCTFHQCVRLSKFDSERSISFIPPDGEFELMRYRTTKDIILPFRVIPLVREVGRTKLEVKVVIKSNFKPSLLAQKIEVRIPTPLNTSGVQVICMKGKAKYKASENAIVWKIKRMAGMKESQISAEIELLPTNDKKKWARPPISMNFEVPFAPSGLKVRYLKVFEPKLNYSDHDVIKAVRYIGRSGIYETRC [W421A] |
| decreasing interaction | MIGGLFIYNHKGEVLISRVYRDDIGRNAVDAFRVNVIHARQQVRSPVTNIARTSFFHVKRSNIWLAAVTKQNVNAAMVFEFLYKMCDVMAAYFGKISEENIKNNFVLIYELLDEILDFGYPQNSETGALKTFITQQGIKSQHQTKEEQSQITSQVTGQIGWRREGIKYRRNELFLDVLESVNLLMSPQGQVLSAHVSGRVVMKSYLSGMPECDFGMNDKIVIEKQGKGTADETSKSGKQSIAIDDCTFHQCVRLSKFDSERSISFIPPDGEFELMRYRTTKDIILPFRVIPLVREVGRTKLEVKVVIKSNFKPSLLAQKIEVRIPTPLNTSGVQVICMKGKAKYKASENAIVWKIKRMAGMKESQISAEIELLPTNDKKKWARPPISMNFEVPFAPSGLKVRYLDVFEPKLNYSDHDVIKWVRYIGRSGIYETRC [K213D;K405D] |
| decreasing interaction | MIGGLFIYNHKGEVLISRVYRDDIGRNAVDAFRVNVIHARQQVRSPVTNIARTSFFHVKRSNIWLAAVTKQNVNAAMVFEFLYKMCDVMAAYFGKISEENIKNNFVLIYELLDEILDFGYPQNSETGALKTFITQQGIKSQHQTKEEQSQITSQVTGQIGWRREGIKYRRNELFLDVLESVNLLMSPQGQVLSAHVSGRVVMKSYLSGMPACDFGMNDKIVIEKQGKGTADETSKSGKQSIAIDDCTFHQCVRLSKFDSERSISFIPPDGEFELMRYRTTKDIILPFRVIPLVREVGRTKLEVKVVIKSNFKPSLLAQKIEVRIPTPLNTSGVQVICMKGKAKYKASENAIVWKIKRMAGMKESQISAEIELLPTNDKKKWARPPISMNFEVPFAPSGLKVRYLDVAEPKLNYSDHDVIKWVRYIGRSGIYETRC [E211A;K213D;K405D;F407A] |
| decreasing interaction | MIGGLFIYNHKGEVLISRVYRDDIGRNAVDAFRVNVIHARQQVRSPVTNIARTSFFHVKRSNIWLAAVTKQNVNAAMVFEFLYKMCDVMAAYFGKISEENIKNNFVLIYELLDEILDFGYPQNSETGALKTFITQQGIKSQHQTKEEQSQITSQVTGQIGWRREGIKYRRNELFLDVLESVNLLMSPQGQVLSAHVSGRVVMKSYLSGMPACDFGMNDKIVIEKQGKGTADETSKSGKQSIAIDDCTFHQCVRLSKFDSERSISFIPPDGEFELMRYRTTKDIILPFRVIPLVREVGRTKLEVKVVIKSNFKPSLLAQKIEVRIPTPLNTSGVQVICMKGKAKYKASENAIVWKIKRMAGMKESQISAEIELLPTNDKKKWARPPISMNFEVPFAPSGLKVRYLDVFEPKLNYSDHDVIKWVRYIGRSGIYETRC [E211A;K213D;K405D] |

From IntAct's records for PubMed 20947020
